Values joined by “and” are separate entries in the source; they are usually repeats but may differ in a detail not shown here. Equal values may be shown once.
Tests used:
carboxypeptidase A (CPA) = target: T1, carboxypeptidase A (CPA) (Homo sapiens, UniProt P15085); conditions: CPA specific inhibitor; reported values (Byers and Wolfenden 1973; Peterson et al. 1976); cited from earlier work
T1 sequence (P15085 111-419): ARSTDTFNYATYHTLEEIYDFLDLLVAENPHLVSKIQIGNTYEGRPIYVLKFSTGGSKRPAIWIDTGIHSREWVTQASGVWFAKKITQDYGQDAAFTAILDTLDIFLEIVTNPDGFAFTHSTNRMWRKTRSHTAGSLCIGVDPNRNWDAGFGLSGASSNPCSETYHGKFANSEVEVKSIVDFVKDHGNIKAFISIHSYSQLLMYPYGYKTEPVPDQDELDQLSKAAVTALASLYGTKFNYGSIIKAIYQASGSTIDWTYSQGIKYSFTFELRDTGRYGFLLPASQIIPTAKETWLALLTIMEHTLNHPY

[1] = tested on: procarboxypeptidase A (PCPA) in human serum; experiment: Activation of PCPA in human serum with clostripain, total CPA activity; format: biochemical; conditions: sera from four healthy individuals and one with pancreatitis
Protocol: In the present invention, the protease clostripain was added to activate any PCPA in the biological fluid so that total CPA could be measured.
Approximately 3 mg (500 units) of lyophilized clostripain was dissolved in 1 ml of 10 mM Tris buffer (pH 8.0) along with CaCl2 and Cleland's Reagent at final concentrations of 20 mM and 1 mM, respectively. This mixture was incubated at room temperature for approximately 2 hours. This solution was then added to serum in concentrations ranging from approximately 50 to 500 units of clostripain/ml of serum. One unit was defined as the amount of clostripain which could cleave one micromole of Nα-benzoyl arginine ethyl ester (BAEE) in one minute. Determination of PCPA levels in blood donor samples was performed with 250 units of clostripain per ml serum. The standard serum volume was 0.013 ml serum per ml total solution. This mixture was incubated for five minutes at 37° C., after which time Ellman's Reagent was added at the standard concentration to eliminate clostripain as it quickly derivatizes all sulfhydryl groups in the mixture. From this point, the standard assay as described in Example 2 was followed.

Row | Molecule | Ki (carboxypeptidase A (CPA)) | CPA activities after activation, compared with trypsin [1] | CPA activity loss at supramaximal concentrations of activating protease ([1]; unlike trypsin)
1 | O=C(O)CC(Cc1ccccc1)C(=O)O (racemic) [α-benzylsuccinic acid] | 1000 nM and 1600 nM | – | –
2 | clostripain: protease added to activate PCPA in the biological fluid (protein, UniProt P09870 51-181; P09870 191-526, looked up) Clostripain light chain: NKNQKVTIMYYCDADNNLEGSLLNDIEEMKTGYKDSPNLNLIALVDRSPRYSSDEKVLGEDFSDTRLYKIEHNKANRLDGKNEFPEISTTSKYEANMGDPEVLKKFIDYCKSNYEADKYVLIMANHGGGAR Clostripain heavy chain: AICWDDSNLDKNGEADCLYMGEISDHLTEKQSVDLLAFDACLMGTAEVAYQYRPGNGGFSADTLVASSPVVWGPGFKYDKIFDRIKAGGGTNNEDDLTLGGKEQNFDPATITNEQLGALFVEEQRDSTHANGRYDQHLSFYDLKKAESVKRAIDNLAVNLSNENKKSEIEKLRGSGIHTDLMHYFDEYSEGEWVEYPYFDVYDLCEKINKSENFSSKTKDLASNAMNKLNEMIVYSFGDPSNNFKEGKNGLSIFLPNGDKKYSTYYTSTKIPHWTMQSWYNSIDTVKYGLNPYGKLSWCKDGQDPEINKVGNWFELLDSWFDKTNDVTGGVNHYQW | – | significantly higher than the maximum values that could be obtained when using trypsin | only slight CPA activity losses

Reference: patent publication US6461832B2, “Method of detecting procarboxypeptidase A and carboxypeptidase A levels in biological fluids” (priority 1997, dated 2002)
